Where no end group is shown, it is not given here. [ ]: non-standard residue; d: D form. pY = N[C@@H](Cc1ccc(OP(=O)(O)O)cc1)C(=O)O
T1: Fe65 N-term-WW-PID1-PID2 1-662 (human, UniProt O00213-2 1-662)
T1 sequence (looked up): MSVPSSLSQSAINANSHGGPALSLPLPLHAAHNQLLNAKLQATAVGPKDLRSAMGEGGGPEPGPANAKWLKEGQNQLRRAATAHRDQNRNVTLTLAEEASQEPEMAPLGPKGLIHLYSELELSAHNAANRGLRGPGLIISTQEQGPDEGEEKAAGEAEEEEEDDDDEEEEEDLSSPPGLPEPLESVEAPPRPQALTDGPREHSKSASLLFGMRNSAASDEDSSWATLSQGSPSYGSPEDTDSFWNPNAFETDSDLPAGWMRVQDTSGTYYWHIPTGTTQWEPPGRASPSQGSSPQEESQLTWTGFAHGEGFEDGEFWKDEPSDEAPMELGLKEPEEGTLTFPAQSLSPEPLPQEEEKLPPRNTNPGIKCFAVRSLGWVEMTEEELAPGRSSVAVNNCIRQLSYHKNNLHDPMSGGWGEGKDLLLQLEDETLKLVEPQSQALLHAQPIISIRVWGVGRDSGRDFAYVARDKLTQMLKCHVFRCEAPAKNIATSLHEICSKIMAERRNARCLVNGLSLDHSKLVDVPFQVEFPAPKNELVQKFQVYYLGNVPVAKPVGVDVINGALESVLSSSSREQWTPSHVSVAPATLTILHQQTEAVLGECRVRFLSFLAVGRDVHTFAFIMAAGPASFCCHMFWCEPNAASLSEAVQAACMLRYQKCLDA

T2: Fe65 WW-PID1-PID2 236-662 (human, UniProt O00213-2 236-662)
T2 sequence (looked up): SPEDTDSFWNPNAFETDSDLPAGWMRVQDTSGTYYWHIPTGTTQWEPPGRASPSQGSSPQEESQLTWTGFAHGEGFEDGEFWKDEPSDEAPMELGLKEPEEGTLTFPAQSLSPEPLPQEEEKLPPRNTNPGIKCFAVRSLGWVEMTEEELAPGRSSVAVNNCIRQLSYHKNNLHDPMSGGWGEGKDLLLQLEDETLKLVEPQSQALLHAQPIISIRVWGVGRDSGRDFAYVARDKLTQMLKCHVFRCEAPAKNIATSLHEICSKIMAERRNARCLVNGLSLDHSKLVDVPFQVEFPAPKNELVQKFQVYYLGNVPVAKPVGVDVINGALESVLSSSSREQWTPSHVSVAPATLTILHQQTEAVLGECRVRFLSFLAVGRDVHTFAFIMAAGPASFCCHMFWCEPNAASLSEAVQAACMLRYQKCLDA

T3: Fe65 WW-PID1 236-512 (human, UniProt O00213-2 236-512)
T3 sequence (looked up): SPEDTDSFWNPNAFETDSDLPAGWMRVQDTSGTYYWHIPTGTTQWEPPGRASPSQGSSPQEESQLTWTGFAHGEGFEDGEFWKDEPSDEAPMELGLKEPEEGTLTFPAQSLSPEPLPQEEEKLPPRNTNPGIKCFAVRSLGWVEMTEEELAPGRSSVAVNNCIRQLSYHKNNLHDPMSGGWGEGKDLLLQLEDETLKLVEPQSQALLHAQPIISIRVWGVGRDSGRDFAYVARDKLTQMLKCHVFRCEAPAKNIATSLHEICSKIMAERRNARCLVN


Experiments:
[1] = target: T1, Fe65 N-term-WW-PID1-PID2 1-662; experiment: SPR
[2] = target: T2, Fe65 WW-PID1-PID2 236-662; experiment: fluorescence polarisation
Fe65 WW-PID1 236-512 = target: T3, Fe65 WW-PID1 236-512; experiment: fluorescence polarisation

Binder | Kd [1] [µM] | Kd [2] [µM] | Kd (Fe65 WW-PID1 236-512) [µM]
APP Intracellular Domain (AICD, residues 649-695), biotinylated at the N-terminal cysteine (domain or fragment, biotin (biotin-maleimide) on the N-terminal cysteine) GSKLCKKKQYTSIHHGVVEVDAAVTPEERHLSKMQQNGYENPTYKFFEQMQN | 2.5 ± 0.35 |  | 
LRP4488 phosphorylated at Y4507 (pYLRP4488) labeled with Oregon Green 488 (domain or fragment, human) C(Oregon Green 488 maleimide)LDADFALDPDKPTNFTNPV[pY]ATLYMGGHGSRHSLASTDEKRELLGRGPEDEIGDPLA |  | 48.3 | 66.7

— article PMC3139566 (Biochemistry, 2011)
